Measurements: PMC6462504, “Dopamine transporter forms stable dimers in the live cell plasma membrane in a phosphatidylinositol 4,5-bisphosphate–independent manner” (The Journal of Biological Chemistry, 2019)

Biological target: the molecule itself
Assay: single-molecule brightness analysis (TOCCSL); live CHO cells stably expressing mGFP–hDAT, TIRF microscopy of the plasma membrane, room temperature; mobile fraction only; also at low (~5/μm^2) and high (~40/μm^2) surface density and after cholesterol oxidase (2 units/ml, 30 min), MβCD (5 mM, 1 h) or m-3M3FBS (25 μM, 20 min): distribution unchanged

B1: human dopamine transporter fused to monomeric GFP (mGFP–hDAT) (natural protein, UniProt Q01959 1-620, looked up)
chain: MSKSKCSVGLMSSVVAPAKEPNAVGPKEVELILVKEQNGVQLTSSTLTNPRQSPVEAQDRETWGKKIDFLLSVIGFAVDLANVWRFPYLCYKNGGGAFLVPYLLFMVIAGMPLFYMELALGQFNREGAAGVWKICPILKGVGFTVILISLYVGFFYNVIIAWALHYLFSSFTTELPWIHCNNSWNSPNCSDAHPGDSSGDSSGLNDTFGTTPAAEYFERGVLHLHQSHGIDDLGPPRWQLTACLVLVIVLLYFSLWKGVKTSGKVVWITATMPYVVLTALLLRGVTLPGAIDGIRAYLSVDFYRLCEASVWIDAATQVCFSLGVGFGVLIAFSSYNKFTNNCYRDAIVTTSINSLTSFSSGFVVFSFLGYMAQKHSVPIGDVAKDGPGLIFIIYPEAIATLPLSSAWAVVFFIMLLTLGIDSAMGGMESVITGLIDEFQLLHRHRELFTLFIVLATFLLSLFCVTNGGIYVFTLLDHFAAGTSILFGVLIEAIGVAWFYGVGQFSDDIQQMTGQRPSLYWRLCWKLVSPCFLLFVVVVSIVTFRPPHYGAYIFPDWANALGWVIATSSMAMVPIYAAYKFCSLPGSFREKLAYAIAPEKDRELVDRGEVRQFTLRHWLKV
notes: human dopamine transporter (hDAT); XhoI/HindIII fragment of hDAT cDNA ligated into mGFP-C1, then cloned into pIB2; mGFP is fused to the cytosolic N terminus of hDAT; also called mEGFP–hDAT; mGFP–DAT; source: CHO cells stably expressing mGFP–hDAT (viral transduction, blasticidine selection), in the live cell plasma membrane; not shown: mGFP (eGFP with A206K), N-terminal, kept
stoichiometry N: 2
